Measured values reported in the supplement of paper PMC10567573.

B1: TMEM40 (parent)
chain: YGETDFHKQDGKAGLFSQEQYERN

Variants of: B1
Test: protein stability index of a GFP-peptide fusion (GPS, HEK-293T) (PSI 1-6); higher = more stable
Settings: c terminus: a fixed tail appended
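Note: lentivirally expressed fusions sorted by FACS into six bins by GFP to DsRed ratio, PSI derived from sequencing read proportions per bin multiplied by bin number.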

Compared with YGETCFHKQDGKAGLFSQEQYERN [D5C], YGETEFHKQDGKAGLFSQEQYERN [D5E] is higher in protein stability index: 2.36 for the first, 4.37 for the second.

Compared with YGETFFHKQDGKAGLFSQEQYERN [D5F], YGETGFHKQDGKAGLFSQEQYERN [D5G] is higher in protein stability index: 1.49 for the first, 2.37 for the second.

Going from YGETHFHKQDGKAGLFSQEQYERN [D5H] to YGETIFHKQDGKAGLFSQEQYERN [D5I], the protein stability index rises from 2.83 to 3.15.

Going from YGETKFHKQDGKAGLFSQEQYERN [D5K] to YGETLFHKQDGKAGLFSQEQYERN [D5L], the protein stability index falls from 3.2 to 3.07.

First: YGETMFHKQDGKAGLFSQEQYERN [D5M]
Second: YGETNFHKQDGKAGLFSQEQYERN [D5N]
The protein stability index of the first is lower: 2.58 for the first, 3.24 for the second.

First: YGETPFHKQDGKAGLFSQEQYERN [D5P]
Second: YGETQFHKQDGKAGLFSQEQYERN [D5Q]
The protein stability index of the first is higher: 4.14 for the first, 3.81 for the second.

Compared with YGETRFHKQDGKAGLFSQEQYERN [D5R], YGETSFHKQDGKAGLFSQEQYERN [D5S] is lower in protein stability index: 3.38 for the first, 2.88 for the second.

Compared with YGETTFHKQDGKAGLFSQEQYERN [D5T], YGETVFHKQDGKAGLFSQEQYERN [D5V] is higher in protein stability index: 2.99 for the first, 3.2 for the second.

First: YGETYFHKQDGKAGLFSQEQYERN [D5Y]
Second: YGETDAHKQDGKAGLFSQEQYERN [F6A]
The protein stability index of the first is lower: 2.04 for the first, 5.22 for the second.

Going from YGETDCHKQDGKAGLFSQEQYERN [F6C] to YGETDDHKQDGKAGLFSQEQYERN [F6D], the protein stability index rises from 4.54 to 5.26.

Going from YGETDEHKQDGKAGLFSQEQYERN [F6E] to YGETDGHKQDGKAGLFSQEQYERN [F6G], the protein stability index falls from 5.38 to 5.25.

Compared with YGETDHHKQDGKAGLFSQEQYERN [F6H], YGETDIHKQDGKAGLFSQEQYERN [F6I] is lower in protein stability index: 5.22 for the first, 4.73 for the second.

Going from YGETDKHKQDGKAGLFSQEQYERN [F6K] to YGETDLHKQDGKAGLFSQEQYERN [F6L], the protein stability index rises from 4.91 to 4.98.

First: YGETDMHKQDGKAGLFSQEQYERN [F6M]
Second: YGETDNHKQDGKAGLFSQEQYERN [F6N]
The protein stability index of the first is lower: 4.91 for the first, 5 for the second.

Going from YGETDPHKQDGKAGLFSQEQYERN [F6P] to YGETDQHKQDGKAGLFSQEQYERN [F6Q], the protein stability index falls from 4.94 to 4.36.

Going from YGETDRHKQDGKAGLFSQEQYERN [F6R] to YGETDSHKQDGKAGLFSQEQYERN [F6S], the protein stability index rises from 4.54 to 5.6.

Compared with YGETDTHKQDGKAGLFSQEQYERN [F6T], YGETDVHKQDGKAGLFSQEQYERN [F6V] is higher in protein stability index: 4.6 for the first, 5.09 for the second.

Compared with YGETDWHKQDGKAGLFSQEQYERN [F6W], YGETDYHKQDGKAGLFSQEQYERN [F6Y] is higher in protein stability index: 2.35 for the first, 4.41 for the second.

First: YGETDFAKQDGKAGLFSQEQYERN [H7A]
Second: YGETDFCKQDGKAGLFSQEQYERN [H7C]
The protein stability index of the first is higher: 4.48 for the first, 4.35 for the second.

First: YGETDFDKQDGKAGLFSQEQYERN [H7D]
Second: YGETDFEKQDGKAGLFSQEQYERN [H7E]
The protein stability index of the first is higher: 5.38 for the first, 4.93 for the second.

First: YGETDFFKQDGKAGLFSQEQYERN [H7F]
Second: YGETDFGKQDGKAGLFSQEQYERN [H7G]
The protein stability index of the first is lower: 1.88 for the first, 4.58 for the second.

First: YGETDFIKQDGKAGLFSQEQYERN [H7I]
Second: YGETDFKKQDGKAGLFSQEQYERN [H7K]
The protein stability index of the first is higher: 4.37 for the first, 4.18 for the second.

First: YGETDFLKQDGKAGLFSQEQYERN [H7L]
Second: YGETDFMKQDGKAGLFSQEQYERN [H7M]
The protein stability index of the first is higher: 3.92 for the first, 3.9 for the second.

First: YGETDFNKQDGKAGLFSQEQYERN [H7N]
Second: YGETDFPKQDGKAGLFSQEQYERN [H7P]
The protein stability index of the first is higher: 4.91 for the first, 4.3 for the second.

Going from YGETDFQKQDGKAGLFSQEQYERN [H7Q] to YGETDFRKQDGKAGLFSQEQYERN [H7R], the protein stability index falls from 4.32 to 4.08.

First: YGETDFSKQDGKAGLFSQEQYERN [H7S]
Second: YGETDFTKQDGKAGLFSQEQYERN [H7T]
The protein stability index of the first is higher: 4.67 for the first, 4.53 for the second.

First: YGETDFVKQDGKAGLFSQEQYERN [H7V]
Second: YGETDFWKQDGKAGLFSQEQYERN [H7W]
The protein stability index of the first is higher: 4.24 for the first, 3.12 for the second.

Compared with YGETDFYKQDGKAGLFSQEQYERN [H7Y], YGETDFHAQDGKAGLFSQEQYERN [K8A] is higher in protein stability index: 2.17 for the first, 4.53 for the second.

Going from YGETDFHCQDGKAGLFSQEQYERN [K8C] to YGETDFHDQDGKAGLFSQEQYERN [K8D], the protein stability index rises from 4.5 to 5.12.

Compared with YGETDFHEQDGKAGLFSQEQYERN [K8E], YGETDFHFQDGKAGLFSQEQYERN [K8F] is lower in protein stability index: 4.67 for the first, 3.77 for the second.

First: YGETDFHGQDGKAGLFSQEQYERN [K8G]
Second: YGETDFHHQDGKAGLFSQEQYERN [K8H]
The protein stability index of the first is higher: 4.31 for the first, 4.18 for the second.

First: YGETDFHIQDGKAGLFSQEQYERN [K8I]
Second: YGETDFHLQDGKAGLFSQEQYERN [K8L]
The protein stability index of the first is lower: 3.89 for the first, 4.29 for the second.

Compared with YGETDFHMQDGKAGLFSQEQYERN [K8M], YGETDFHNQDGKAGLFSQEQYERN [K8N] is higher in protein stability index: 3.71 for the first, 4.01 for the second.

Compared with YGETDFHPQDGKAGLFSQEQYERN [K8P], YGETDFHQQDGKAGLFSQEQYERN [K8Q] is lower in protein stability index: 4.7 for the first, 4.66 for the second.

First: YGETDFHRQDGKAGLFSQEQYERN [K8R]
Second: YGETDFHSQDGKAGLFSQEQYERN [K8S]
The protein stability index of the first is lower: 3.86 for the first, 4.66 for the second.

Compared with YGETDFHTQDGKAGLFSQEQYERN [K8T], YGETDFHVQDGKAGLFSQEQYERN [K8V] is lower in protein stability index: 4.46 for the first, 4.34 for the second.

Compared with YGETDFHWQDGKAGLFSQEQYERN [K8W], YGETDFHYQDGKAGLFSQEQYERN [K8Y] is higher in protein stability index: 2.36 for the first, 3.96 for the second.

Going from YGETDFHKADGKAGLFSQEQYERN [Q9A] to YGETDFHKDDGKAGLFSQEQYERN [Q9D], the protein stability index rises from 3.96 to 5.05.

Compared with YGETDFHKEDGKAGLFSQEQYERN [Q9E], YGETDFHKFDGKAGLFSQEQYERN [Q9F] is lower in protein stability index: 4.78 for the first, 3.38 for the second.

First: YGETDFHKGDGKAGLFSQEQYERN [Q9G]
Second: YGETDFHKHDGKAGLFSQEQYERN [Q9H]
The protein stability index of the first is lower: 3.73 for the first, 3.75 for the second.

Compared with YGETDFHKIDGKAGLFSQEQYERN [Q9I], YGETDFHKKDGKAGLFSQEQYERN [Q9K] is lower in protein stability index: 3.71 for the first, 3.7 for the second.

Going from YGETDFHKLDGKAGLFSQEQYERN [Q9L] to YGETDFHKMDGKAGLFSQEQYERN [Q9M], the protein stability index falls from 3.49 to 3.17.

First: YGETDFHKNDGKAGLFSQEQYERN [Q9N]
Second: YGETDFHKPDGKAGLFSQEQYERN [Q9P]
The protein stability index of the first is higher: 4.53 for the first, 3.56 for the second.

Going from YGETDFHKRDGKAGLFSQEQYERN [Q9R] to YGETDFHKSDGKAGLFSQEQYERN [Q9S], the protein stability index rises from 4.13 to 4.33.

Compared with YGETDFHKTDGKAGLFSQEQYERN [Q9T], YGETDFHKVDGKAGLFSQEQYERN [Q9V] is lower in protein stability index: 3.85 for the first, 3.6 for the second.

Going from YGETDFHKWDGKAGLFSQEQYERN [Q9W] to YGETDFHKYDGKAGLFSQEQYERN [Q9Y], the protein stability index rises from 2.99 to 3.37.

Going from YGETDFHKQCGKAGLFSQEQYERN [D10C] to YGETDFHKQEGKAGLFSQEQYERN [D10E], the protein stability index rises from 2.46 to 3.72.
